Results from article PMC9482650, “Quantitative fragmentomics allow affinity mapping of interactomes” (Nature Communications, 2022).

T1: SYNJ2BP, P57105
T1 sequence (P57105 8-110, limits assumed, looked up): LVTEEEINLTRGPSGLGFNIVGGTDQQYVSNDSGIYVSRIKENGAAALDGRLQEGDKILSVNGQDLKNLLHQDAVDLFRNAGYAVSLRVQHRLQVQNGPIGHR

T2: SNTB1, Q13884
T2 sequence (Q13884 107-205, limits assumed, looked up): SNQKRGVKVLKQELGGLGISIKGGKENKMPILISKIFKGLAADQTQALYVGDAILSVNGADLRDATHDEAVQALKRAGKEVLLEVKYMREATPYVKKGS

T3: DVL3, Q92997
T3 sequence (Q92997 244-331, limits assumed, looked up): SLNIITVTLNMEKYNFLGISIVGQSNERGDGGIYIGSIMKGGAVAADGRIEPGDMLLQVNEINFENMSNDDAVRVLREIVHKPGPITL

T4: TJP3_3, O95049
T4 sequence (O95049 375-456, limits assumed, looked up): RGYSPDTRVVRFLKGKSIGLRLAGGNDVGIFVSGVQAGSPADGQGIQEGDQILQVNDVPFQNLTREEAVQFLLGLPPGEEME

T5: DLG3_1, Q92796
T5 sequence (Q92796 125-227, limits assumed, looked up): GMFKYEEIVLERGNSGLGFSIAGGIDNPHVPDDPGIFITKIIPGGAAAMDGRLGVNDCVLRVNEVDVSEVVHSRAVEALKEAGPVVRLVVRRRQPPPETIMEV

T6: APBA3_1, O96018
T6 sequence (O96018 389-490, limits assumed, looked up): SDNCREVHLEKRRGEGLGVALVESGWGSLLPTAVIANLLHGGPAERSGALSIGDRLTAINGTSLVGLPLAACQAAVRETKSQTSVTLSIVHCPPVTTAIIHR

T7: SNTA1, Q13424
T7 sequence (Q13424 82-180, limits assumed, looked up): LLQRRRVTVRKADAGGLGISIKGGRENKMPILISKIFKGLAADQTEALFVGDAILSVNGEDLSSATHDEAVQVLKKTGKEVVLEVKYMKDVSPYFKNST

T8: SIPA1L2, Q9P2F8
T8 sequence (Q9P2F8 945-1036, limits assumed, looked up): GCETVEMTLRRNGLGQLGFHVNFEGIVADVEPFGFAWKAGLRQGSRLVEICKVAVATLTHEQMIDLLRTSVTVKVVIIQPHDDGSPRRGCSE

T9: GRIP1_5, Q9Y3R0
T9 sequence (Q9Y3R0 568-668, limits assumed, looked up): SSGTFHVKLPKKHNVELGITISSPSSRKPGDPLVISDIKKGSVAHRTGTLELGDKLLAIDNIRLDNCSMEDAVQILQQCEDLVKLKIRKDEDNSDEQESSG

T10: CARD11, Q9BXL7
T10 sequence (Q9BXL7 662-765, limits assumed, looked up): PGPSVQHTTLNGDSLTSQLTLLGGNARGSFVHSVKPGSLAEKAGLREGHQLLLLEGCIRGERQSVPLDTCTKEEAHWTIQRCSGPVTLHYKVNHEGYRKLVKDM

T11: APBA2_2, Q99767
T11 sequence (Q99767 654-744, limits assumed, looked up): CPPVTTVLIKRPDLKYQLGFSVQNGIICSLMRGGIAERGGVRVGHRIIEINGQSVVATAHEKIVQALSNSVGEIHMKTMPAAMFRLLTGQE

T12: SHANK1, Q9Y566
T12 sequence (Q9Y566 658-767, limits assumed, looked up): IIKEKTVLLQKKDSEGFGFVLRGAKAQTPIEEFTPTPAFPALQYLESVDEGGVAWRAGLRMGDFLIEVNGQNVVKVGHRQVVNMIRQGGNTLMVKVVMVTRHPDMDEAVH

T13: PDZD7_3, Q9H5P4
T13 sequence (Q9H5P4 857-944, limits assumed, looked up): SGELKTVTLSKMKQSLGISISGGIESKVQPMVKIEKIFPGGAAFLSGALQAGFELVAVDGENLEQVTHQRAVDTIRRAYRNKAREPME

B1: SAPCD1, Q5SSQ6 (peptide)
chain: TKGPRGPTRV
B2: CLDN2, P57739 (peptide)
chain: FNSYSLTGYV
B3: SLC45A4, Q5BKX6 (peptide)
chain: QGPVETESVV
B4: SDC4, P31431 (peptide)
chain: KKAPTNEFYA
B5: DACT1, Q9NYF0 (peptide)
chain: SGSLKLMTTV
B6: NOSTRIN, Q8IVI9 (peptide)
chain: SNAGNTATKA

biological target: PDLIM1, O00151; assay: holdup assay; parameters: key: below the threshold = too weak to quantify, mostly under pKd 3.1 to 4; conditions: plain residues with an end cap or a label only (N-terminal biotin on a linker: ado-ado)
Sequence (O00151 1-87): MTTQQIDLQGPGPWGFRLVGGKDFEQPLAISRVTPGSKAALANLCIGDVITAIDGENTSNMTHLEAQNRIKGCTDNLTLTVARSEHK

pKd | Binder
below the threshold | B1
below the threshold | B2
below the threshold | B3
below the threshold | B4
below the threshold | B5
below the threshold | B6

biological target: Inadl_6, Q8NI35; assay: holdup assay; parameters: key: below the threshold = too weak to quantify, mostly under pKd 3.1 to 4; conditions: plain residues with an end cap or a label only (N-terminal biotin on a linker: ado-ado)
Sequence (Q8NI35 1058-1167): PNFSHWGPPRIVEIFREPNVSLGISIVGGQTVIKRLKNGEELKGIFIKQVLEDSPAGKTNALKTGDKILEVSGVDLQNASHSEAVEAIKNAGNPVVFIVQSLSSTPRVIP

pKd | Binder
below the threshold | B1
below the threshold | B2
3.57 | B3
below the threshold | B4
below the threshold | B5
below the threshold | B6

biological target: MAGI2_6, Q86UL8; assay: holdup assay; parameters: key: below the threshold = too weak to quantify, mostly under pKd 3.1 to 4; conditions: plain residues with an end cap or a label only (N-terminal biotin on a linker: ado-ado)
Sequence (Q86UL8 1141-1229): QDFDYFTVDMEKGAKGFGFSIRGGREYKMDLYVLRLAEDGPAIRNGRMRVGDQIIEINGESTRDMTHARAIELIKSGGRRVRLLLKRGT

pKd | Binder
below the threshold | B1
3.72 | B2
3.55 | B3
below the threshold | B4
below the threshold | B5
below the threshold | B6

biological target: MAST1, Q9Y2H9; assay: holdup assay; parameters: key: below the threshold = too weak to quantify, mostly under pKd 3.1 to 4; conditions: plain residues with an end cap or a label only (N-terminal biotin on a linker: ado-ado)
Sequence (Q9Y2H9 962-1065): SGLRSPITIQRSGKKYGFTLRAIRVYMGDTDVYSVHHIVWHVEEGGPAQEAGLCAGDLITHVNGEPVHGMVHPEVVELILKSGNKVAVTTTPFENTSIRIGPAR

pKd | Binder
4.09 | B1
3.94 | B2
4.36 | B3
below the threshold | B4
3.97 | B5
below the threshold | B6

biological target: Inadl_4, Q8NI35; assay: holdup assay; parameters: key: below the threshold = too weak to quantify, mostly under pKd 3.1 to 4; conditions: plain residues with an end cap or a label only (N-terminal biotin on a linker: ado-ado)
Sequence (Q8NI35 547-651): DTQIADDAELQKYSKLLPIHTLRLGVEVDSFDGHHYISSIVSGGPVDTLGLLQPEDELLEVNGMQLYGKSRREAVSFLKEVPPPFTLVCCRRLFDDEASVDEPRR

pKd | Binder
below the threshold | B1
below the threshold | B2
3.63 | B3
below the threshold | B4
below the threshold | B5
below the threshold | B6

biological target: T1, SYNJ2BP, P57105; assay: holdup assay; parameters: key: below the threshold = too weak to quantify, mostly under pKd 3.1 to 4; conditions: plain residues with an end cap or a label only (N-terminal biotin on a linker: ado-ado)

pKd | Binder
4.25 | B1
3.88 | B2
4.49 | B3
below the threshold | B4
4.3 | B5
below the threshold | B6

biological target: T2, SNTB1, Q13884; assay: holdup assay; parameters: key: below the threshold = too weak to quantify, mostly under pKd 3.1 to 4; conditions: plain residues with an end cap or a label only (N-terminal biotin on a linker: ado-ado)

pKd | Binder
4.46 | B1
3.61 | B2
4.94 | B3
below the threshold | B4
3.64 | B5
below the threshold | B6

biological target: T3, DVL3, Q92997; assay: holdup assay; parameters: key: below the threshold = too weak to quantify, mostly under pKd 3.1 to 4; conditions: plain residues with an end cap or a label only (N-terminal biotin on a linker: ado-ado)

pKd | Binder
below the threshold | B1
3.81 | B2
below the threshold | B3
below the threshold | B4
below the threshold | B5
below the threshold | B6

biological target: T4, TJP3_3, O95049; assay: holdup assay; parameters: key: below the threshold = too weak to quantify, mostly under pKd 3.1 to 4; conditions: plain residues with an end cap or a label only (N-terminal biotin on a linker: ado-ado)

pKd | Binder
below the threshold | B1
4.31 | B2
3.59 | B3
below the threshold | B4
below the threshold | B5
below the threshold | B6

biological target: DLG5_1, Q8TDM6; assay: holdup assay; parameters: key: below the threshold = too weak to quantify, mostly under pKd 3.1 to 4; conditions: plain residues with an end cap or a label only (N-terminal biotin on a linker: ado-ado)
Sequence (Q8TDM6 617-713): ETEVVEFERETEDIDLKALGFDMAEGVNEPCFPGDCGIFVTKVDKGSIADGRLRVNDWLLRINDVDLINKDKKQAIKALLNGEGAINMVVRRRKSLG

pKd | Binder
below the threshold | B1
below the threshold | B2
below the threshold | B3
below the threshold | B4
below the threshold | B5
below the threshold | B6

biological target: DLG1_1, Q12959; assay: holdup assay; parameters: key: below the threshold = too weak to quantify, mostly under pKd 3.1 to 4; conditions: plain residues with an end cap or a label only (N-terminal biotin on a linker: ado-ado)

pKd | Binder
4.38 | B1
below the threshold | B2
4.19 | B3
below the threshold | B4
4.92 | B5
below the threshold | B6

biological target: T5, DLG3_1, Q92796; assay: holdup assay; parameters: key: below the threshold = too weak to quantify, mostly under pKd 3.1 to 4; conditions: plain residues with an end cap or a label only (N-terminal biotin on a linker: ado-ado)

pKd | Binder
3.96 | B1
below the threshold | B2
3.88 | B3
below the threshold | B4
4.45 | B5
below the threshold | B6

biological target: T6, APBA3_1, O96018; assay: holdup assay; parameters: key: below the threshold = too weak to quantify, mostly under pKd 3.1 to 4; conditions: plain residues with an end cap or a label only (N-terminal biotin on a linker: ado-ado)

pKd | Binder
below the threshold | B1
below the threshold | B2
below the threshold | B3
below the threshold | B4
below the threshold | B5
below the threshold | B6

biological target: GRIP2_4, Q9C0E4; assay: holdup assay; parameters: key: below the threshold = too weak to quantify, mostly under pKd 3.1 to 4; conditions: plain residues with an end cap or a label only (N-terminal biotin on a linker: ado-ado)
Sequence (Q9C0E4 446-548): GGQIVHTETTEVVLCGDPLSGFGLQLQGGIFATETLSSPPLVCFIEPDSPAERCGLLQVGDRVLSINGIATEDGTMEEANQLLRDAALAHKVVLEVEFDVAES

pKd | Binder
below the threshold | B1
below the threshold | B2
below the threshold | B3
below the threshold | B4
below the threshold | B5
below the threshold | B6

biological target: MAGI2_5, Q86UL8; assay: holdup assay; parameters: key: below the threshold = too weak to quantify, mostly under pKd 3.1 to 4; conditions: plain residues with an end cap or a label only (N-terminal biotin on a linker: ado-ado)
Sequence (Q86UL8 915-1017): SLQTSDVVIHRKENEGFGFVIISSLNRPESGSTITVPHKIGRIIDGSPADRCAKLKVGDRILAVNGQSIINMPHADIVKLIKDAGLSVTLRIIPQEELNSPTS

pKd | Binder
below the threshold | B1
below the threshold | B2
4.55 | B3
below the threshold | B4
4.51 | B5
below the threshold | B6

biological target: GRID2IP_2, A4D2P6; assay: holdup assay; parameters: key: below the threshold = too weak to quantify, mostly under pKd 3.1 to 4; conditions: plain residues with an end cap or a label only (N-terminal biotin on a linker: ado-ado)
Sequence (A4D2P6 272-370): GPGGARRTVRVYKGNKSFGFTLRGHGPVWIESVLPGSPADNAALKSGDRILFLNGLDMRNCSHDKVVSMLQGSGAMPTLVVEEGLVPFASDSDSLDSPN

pKd | Binder
4.58 | B1
3.68 | B2
3.55 | B3
below the threshold | B4
3.97 | B5
below the threshold | B6

biological target: T7, SNTA1, Q13424; assay: holdup assay; parameters: key: below the threshold = too weak to quantify, mostly under pKd 3.1 to 4; conditions: plain residues with an end cap or a label only (N-terminal biotin on a linker: ado-ado)

pKd | Binder
4.39 | B1
3.64 | B2
4.93 | B3
below the threshold | B4
3.49 | B5
below the threshold | B6

biological target: SCRIB_2, Q14160; assay: holdup assay; parameters: key: below the threshold = too weak to quantify, mostly under pKd 3.1 to 4; conditions: plain residues with an end cap or a label only (N-terminal biotin on a linker: ado-ado)
Sequence (Q14160 857-960): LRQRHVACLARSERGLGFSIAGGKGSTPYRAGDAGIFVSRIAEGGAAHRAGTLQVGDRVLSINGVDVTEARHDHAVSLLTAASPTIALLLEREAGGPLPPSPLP

pKd | Binder
below the threshold | B1
below the threshold | B2
3.67 | B3
below the threshold | B4
3.69 | B5
below the threshold | B6

biological target: T8, SIPA1L2, Q9P2F8; assay: holdup assay; parameters: key: below the threshold = too weak to quantify, mostly under pKd 3.1 to 4; conditions: plain residues with an end cap or a label only (N-terminal biotin on a linker: ado-ado)

pKd | Binder
below the threshold | B1
3.5 | B2
below the threshold | B3
below the threshold | B4
below the threshold | B5
below the threshold | B6

biological target: T9, GRIP1_5, Q9Y3R0; assay: holdup assay; parameters: key: below the threshold = too weak to quantify, mostly under pKd 3.1 to 4; conditions: plain residues with an end cap or a label only (N-terminal biotin on a linker: ado-ado)

pKd | Binder
below the threshold | B1
below the threshold | B2
below the threshold | B3
below the threshold | B4
below the threshold | B5
below the threshold | B6

biological target: T10, CARD11, Q9BXL7; assay: holdup assay; parameters: key: below the threshold = too weak to quantify, mostly under pKd 3.1 to 4; conditions: plain residues with an end cap or a label only (N-terminal biotin on a linker: ado-ado)

pKd | Binder
below the threshold | B1
below the threshold | B2
below the threshold | B3
below the threshold | B4
below the threshold | B5
below the threshold | B6

biological target: T11, APBA2_2, Q99767; assay: holdup assay; parameters: key: below the threshold = too weak to quantify, mostly under pKd 3.1 to 4; conditions: plain residues with an end cap or a label only (N-terminal biotin on a linker: ado-ado)

pKd | Binder
below the threshold | B1
below the threshold | B2
below the threshold | B3
below the threshold | B4
below the threshold | B5
below the threshold | B6

biological target: HTRA1, Q92743; assay: holdup assay; parameters: key: below the threshold = too weak to quantify, mostly under pKd 3.1 to 4; conditions: plain residues with an end cap or a label only (N-terminal biotin on a linker: ado-ado)
Sequence (Q92743 360-477): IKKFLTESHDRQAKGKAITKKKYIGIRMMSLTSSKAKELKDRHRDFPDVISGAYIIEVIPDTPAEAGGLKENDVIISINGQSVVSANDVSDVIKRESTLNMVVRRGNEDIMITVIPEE

pKd | Binder
below the threshold | B1
4.4 | B2
4.55 | B3
4.41 | B4
4.04 | B5
below the threshold | B6

biological target: T12, SHANK1, Q9Y566; assay: holdup assay; parameters: key: below the threshold = too weak to quantify, mostly under pKd 3.1 to 4; conditions: plain residues with an end cap or a label only (N-terminal biotin on a linker: ado-ado)

pKd | Binder
4.26 | B1
below the threshold | B2
below the threshold | B3
below the threshold | B4
below the threshold | B5
below the threshold | B6

biological target: T13, PDZD7_3, Q9H5P4; assay: holdup assay; parameters: key: below the threshold = too weak to quantify, mostly under pKd 3.1 to 4; conditions: plain residues with an end cap or a label only (N-terminal biotin on a linker: ado-ado)

pKd | Binder
4.74 | B1
below the threshold | B2
4.56 | B3
below the threshold | B4
5.22 | B5
below the threshold | B6
